Results taken from publication PMC6146688.

Experiments:
[1] = target: LacI-mCherry-E1A(133–205) (human adenovirus 2) (UniProt P03254); test: recruitment to a lacO array (colocalisation of a YFP fusion with a LacI-tethered fusion, confocal microscopy); CHO-A03.1 cells with ~10,000 integrated lacO sites, cotransfected with 2 ug LacI-CFP-E1A or LacI-mCherry-E1A vector and 2 ug YFP-MED6, YFP-MED23 or YFP-p300 vector; fixed after 48 h; score = % of scored cells with colocalisation
[2] = target: LacI-mCherry-E1A(133–189) (human adenovirus 2) (UniProt P03254); test: as above
[3] = target: LacI-mCherry-E1A(133–178) (human adenovirus 2) (UniProt P03254); test: as above
[4] = target: LacI-mCherry-E1A(121–223) (human adenovirus 2) (UniProt P03254); test: as above
[5] = target: LacI-mCherry-E1A(140–205) (human adenovirus 2) (UniProt P03254); test: as above
[6] = target: LacI-mCherry-E1A(140–189) (human adenovirus 2) (UniProt P03254)

With YFP-p300, Q09472 1-2414 the colocalization score (% of cells) [1] was 73%, the colocalization score (% of cells) [2] was 86% and the colocalization score (% of cells) [3] was 64%. For the same substance, the colocalization score (% of cells) [4] was 86%, the colocalization score (% of cells) [5] was 64% and the luciferase reporter with eight lacO sites upstream of the E1B promoter, transient transfection of CHO-K1 cells; activity relative to LacI-mCherry-E1A(121–223) [6] was 10%.
